# Source: the DeepSol protein solubility set
# Experiment: soluble on expression in E. coli; label from the status in PepcDB or PDB records
row,Sequence,soluble on expression in E. coli
1,MSLNIKKAAELSGIKTDNIRYYERIGLIPKITRTESGIRNFTEANIRTLKFVKHMRDAGVQVEPLTRYMALVNEGNPETKEERIEILKNQVEQLRTEIIEKQSALDYLTFKIENYDEVMLPNEINLNQSSKETIKEGHHHHHH,soluble
2,MVINCAFIGFGKSTTRYHLPYVLNRKDSWHVAHIFRRHAKPEEQAPIYSHIHFTSDLDEVLNDPDVKLVVVCTHADSHFEYAKRALEAGKNVLVEKPFTPTLAQAKELFALAKSKGLTVTPYQNRRFDSCFLTAKKAIESGKLGEIVEVESHFDYYRPVAETKPGLPQDGAFYGLGVHTMDQIISLFGRPDHVAYDIRSLRNKANPDDTFEAQLFYGDLKAIVKTSHLVKIDYPKFIVHGKKGSFIKYGIDQQETSLKANIMPGEPGFAADDSVGVLEYVNDEGVTVREEMKPEMGDYGRVYDALYQTITHGAPNYVKESEVLTNLEILERGFEQASPSTVTLAKLEHHHHHH,soluble
3,GEASPVDPLRPVVDASIQPLLKEHRIPGMAVAVLKDGKAHYFNYGVANRESGAGVSEQTLFEIGSVSKTLTATLGAYAVVKGAMQLDDKASRHAPWLKGSAFDSITMGELATYSAGGLPLQFPEEVDSSEKMRAYYRQWAPVYSPGSHRQYSNPSIGLFGHLAASSLKQPFAPLMEQTLLPGLGMHHTYVNVPKQAMASYAYGYSKEDKPIRVNPGMLADEAYGIKTSSADLLRFVKANIGGVDDKALQQAISLTHQGHYSVGGMTQGLGWESYAYPVTEQTLLAGNSAKVILEANPTAAPRESGSQVLFNKTGSTNGFGAYVAFVPARGIGIVMLANRNYPIEARIKAAHAILAQLAG,soluble
4,MTNSIRIGTRKSPLALIHTNLVIQQIKQFFPDINCEIVPIITSGDLIQNKPLYDIGGKALFLKEIEQALLDKKIDLAVHSLKDVPGRMPEPLVIAAVLEREDPRDVFVCLKYKSIEELPQNAVIGSSAVRRKAFIQKIRPDLKVTVFRGNVDSRIKKLMTGEVDATILAYTGLKRLEVFNPEYCHLIEYSQMLPCIGQGVIAVEIRKDDNAMLEICNQINHLPTFELIKPERAFLEYLDANCRTPIAAYSQYLDANPRHLSKLAYREVLEGNTEALATAAYKSNRTDASTGLTYKLPLEVEFGKVSNIQTNFMLGNLDGSKITFHTETTNIKTSTEAGIKAAKMMLEAICK,soluble
5,MGATLTVAVAACTVSTPTSAIPVTHIKCLRINGQIKCVKPISPNTTPAAEHIEHVRKNPRRKAAMDRAAARIADKIALKAGGETFVSLRMKKGFTQSELATAAGLPQPYLSRIENSKQSLQDKTVQKLANALGVSPLEVRAAFERRYEYMEQA,soluble
6,CYVDTNNDGAYEGDELSGTMEYKLILNGKTLKGETTTCAVDAATAEKVFKQYANDNGVDGEWTYDDATKTFTVTE,soluble
7,MTIEKEIEGLIHKTNKDLLNENANKDSRVFPTQRDLMAGIVSKHIAKNMVPSFIMKAHESGIIHVHDIDYSPALPFTNCCLVDLKGMLENGFKLGNAQIETPKSIGVATAIMAQITAQVASHQYGGTTFANVDKVLSPYVKRTYAKHIEDAEKWQIADALNYAQSKTEKDVYDAFQAYEYEVNTLFSSNGQTPFVTITFGTGTDWTERMIQKAILKNRIKGLGRDGITPIFPKLVMFVEEGVNLYKDDPNYDIKQLALECASKRMYPDIISAKNNKAITGSSVPVSPMGCRSFLSVWKDSTGNEILDGRNNLGVVTLNLPRIALDSYIGTQFNEQKFVELFNERMDLCFEALMCRISSLKGVKATVAPILYQEGAFGVRLKPDDDIIELFKNGRSSVSLGYIGIHELNILVGRDIGREILTKMNAHLKQWTERTGFAFSLYSTPAENLCYRFCKLDTEKYGSVKDVTDKGWYTNSFHVSVEENITPFEKISREAPYHFIATGGHISYVELPDMKNNLKGLEAVWDYAAQHLDYFGVNMPVDKCFTCGSTHEMTPTENGFVCSICGETDPKKMNTIRRTCAYLGNPNERGFNLGKNKEIMHRVKHQ,soluble
8,MTNSQTVSLIGPTQMAPQSTPPPPVNELWFIDAQAMFQNYANLRSFSKSNANEINTTIGGFVFGRKARKQVIHVLFAYAEDLTESNRQFLESSLSADIELVGNLNIDGQSQILPGGQFTLQLTSRMLENRSISEFLDMNVMFNNEHVLMEGASCVSRVGYEWSLRAGREQEDVKSAAERLSMASFRFTYLNAEHGLVIREQKPEAAQQKYLDKFSKGAVPYKDVIEFTAMQSLTRDTSNDTEDQKLVPTVKVTKDNKHFTRLVTIGEVVFPAFFGDSSLDLYKRSREAFNRRANNTMMVTVNGIRAGRGVTTTTSATYLPPGWVSLLHLQLPTKWTDNEQRNYRIRLHKLFNLPSSKPVLRLSQALALHSESARLTNKKLIREPHLSITNYQPVGEITTVNGPYNYHHYMQDGIDDSGWGCAYRSFQTIWSWFILNGYTDKPVPSHREIQQALVDIQDKQAKFVGSRQWIGSTEISFVLNELLKLECRFIATNSGAEVVERVRELARHFETSGTPVMIGGNMLAHTILGVDFNDTTGETKFLVLDPHYTGSEDIKTITSKGWCAWKPASFWSKDHFYNMVLPQPPSDAI,not soluble
9,MSCCFSKKLFGRRSKREDRYKVSEDAVPKPEEGGEPPKYSWDRREKVNAEDFTIANIHNTTLKKESKDGGPLQMENCTDSTILYLYQTSQVIIDDCRHCTIVLGPAAGSVFVRDCANCTIFTSCQQLRTRDCTSIRISILCPTEPIVENSSDIHFFHLAMRYPELKDQMHAVGLRPFTNRIASVHDFTPAGVNGKGNFRVTPEVVQISDGQEEILRAKGVILKPSPADFIPRFTDTTDPDPTFLYVLGKSEPVDELGDRAIELLHAIYKSGMQVMGTCDLETSTVDSKLVPFAGQAERMILFQLKGNLANLECDVEFDVMSENDLVPLRNLLIHLEGKKNG,not soluble
10,MGSDKIHHHHHHMEHLHRKQITNTFTETFPGDLSMNNTTRQTPGVLYCSVLPTPVHHPQLLAWSADVAEMLGLESPVPEDVLILGGNTVNPTMKPYASCYAGHQFGNWAGQLGDGRAISLGFCSGKDSMEYELQLKGAGPTPYSRNSDGRAVLRSSLREYLMSEAMHYLGVPTTRALSLVSTGDAVLRDMFYNGHAAYEPGAVVLRVAPSFIRFGNFEILAERNNRDLSQQLCDWVITRYYPEIRGEDRVVQLFQAVAERTADMVVQWLRVGFVHGVMNTDNMSILGVTIDYGPYSFVDEYDARFTPNTTDLPGRRYAFGNQAAVAYWNLGRLANALAFLVPETDKLVAVLKNYQDVYETKYYTMMANKLGFDALREDDRLLIDSFEEMLRTVKPDMTMFYQLLIDLPADPGTAADVKQFFQSCFYTEADEALLHTCIAAYSKRIKTNTCSKEVSAEKMRAANPRFVLRNYILHEAIEKLEKGDDALLKKLEEYIKQPYSKNADEYFIKRPDWAAQKAGCSMLSCSS,not soluble
11,MVKRAKLINDVVELIPIFHLLSTETYRKVYNALLEGWYTARELEEMIGEGYRDALRILKNAGMLEAKWRMPSDPGGKPEKEYHVSYTHVSANFYISLKDLNKVLEVVFMSDDEVEEYVREIIKEIEAGRTSVTYITKDLNLDPLFLRAIAKRSLKLNLKGQLIELAKDEEI,not soluble
12,MAHHHHHHMAVVVVQVGQCGNQLGDELWRQLKLTTNSGALPSPFFTRDRRARCVLVDSEPKVVTAVYERQKDVLRAENVIHGQSGRGNHWALGYYGVNDPLSHRAAENAVVARPFQVVKDQRRCDSHVVRNALRAIHAETRRTDDVMEFEAIIVLHSLVGGTGSGMATRLLEKIRYYFIEPLDSSLTVDECEEAEMMRHDGLDGMMMEKRRASYLVSITVAPQAVGELSTQGLNAALTLHALQENANAVLLLRNDDCIRVQEDSCAGGRPRGRGNTSFSTPSFSSIPSCATFKEINEVFLTMLLPILLYGRSTNAVGELVLKCSPNPREINNILTILPTPQRHYLRFKESVTVSRLYVLRGAMQNMPGVYPSVPIELIHTARSLRNPNLVTSREEVQVPKELLKGLKETAATRRSASVTLLQQMEGVLVLNEARELNAAVLFRLLRSAAMKVKAGAFLSTFEDMGMTAECIQAAIREVATRLSAAEEI,not soluble
13,SADKEKKKKESILDLSKYIDKTIRVKFQGGREASGILKGFDPLLNLVLDGTIEYMRDPDDQYKLTEDTRQLGLVVCRGTSVVLICPQDGMEAIPNPFIQQQDA,soluble
14,MSLIEVDLLNNDNLKKKTSGFTILSGDSTDGHGGYGAGVLSLDNVTPVFVDPEEERAFVDLGALHARSEVEKRIKFLPNKEEVPNGKLYWLVWVTIDSKKEGPYYAGVAGCEMTVDREIRRGYKSMPEHVNKMDKSIKGKIVVDDMDERSKRILGEYLKSFNEDMWKRSEPELREKLLGEKEGHHHHHH,soluble
